Measurements taken from US9266964.

Biological target: human plasma kallikrein (human, UniProt P03952 20-390; P03952 391-638)
Assay: cell-based or functional assay

human plasma kallikrein, sequence (P03952 20-390, chain 1 of 2): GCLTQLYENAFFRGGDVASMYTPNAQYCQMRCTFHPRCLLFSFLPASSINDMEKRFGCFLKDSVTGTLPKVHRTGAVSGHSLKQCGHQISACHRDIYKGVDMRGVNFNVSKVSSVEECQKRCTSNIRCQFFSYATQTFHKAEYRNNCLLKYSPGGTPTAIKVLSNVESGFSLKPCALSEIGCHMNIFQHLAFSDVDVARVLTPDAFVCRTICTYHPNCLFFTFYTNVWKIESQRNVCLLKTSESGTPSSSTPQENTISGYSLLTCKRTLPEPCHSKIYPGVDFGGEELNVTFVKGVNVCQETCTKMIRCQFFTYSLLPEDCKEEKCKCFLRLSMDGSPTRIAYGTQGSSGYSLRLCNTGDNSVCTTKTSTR
human plasma kallikrein, sequence (P03952 391-638, chain 2 of 2): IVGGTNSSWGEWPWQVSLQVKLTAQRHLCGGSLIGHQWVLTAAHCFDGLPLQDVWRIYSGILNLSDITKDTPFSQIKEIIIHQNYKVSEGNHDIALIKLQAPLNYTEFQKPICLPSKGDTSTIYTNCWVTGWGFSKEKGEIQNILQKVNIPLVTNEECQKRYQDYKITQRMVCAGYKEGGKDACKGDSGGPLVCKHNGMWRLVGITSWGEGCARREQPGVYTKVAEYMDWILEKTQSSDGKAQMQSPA

Row | Binder | % inhibition at 10 nM
1 | M195-B02 (Fab, V domains shown) VH: EVQLLESGGGLVQPGGSLRLSCAASGFTFSPYLMWWVRQAPGKGLEWVSYIGPSGGPTHYADSVKGRFTISRDNSKNTLYLQMNSLRAEDTAVYYCAYRRTGIPRRDAFDIWGQGTMVTVSS VL: DIQMTQSPSTLSASVGDRVTITCRASQSISSWLAWYQQKPGKAPNLLIYKASTLESGVPSRFSGSGSGTEFTLTISSLQPDDFATYYCQQYNTYWTFGQGTKVEIK | 75.1%
2 | M198-C03 (Fab, V domains shown) VH: EVQLLESGGGLVQPGGSLRLSCAASGFTFSRYSMSWVRQAPGKGLEWVSGISPSGGETSYADSVKGRFTISRDNSKNTLYLQMNSLRAEDTAVYYCAYRRTGIPRRDAFDIWGQGTMVTVSS VL: DIQMTQSPSTLSASVGDRVTITCRASQSISSWLAWYQQKPGKAPNLLIYKASTLESGVPSRFSGSGSGTEFTLTISSLQPDDFATYYCQQYNTYWTFGQGTKVEIK | 72.4%
3 | M198-A08 (Fab, V domains shown) VH: EVQLLESGGGLVQPGGSLRLSCAASGFTFSWYMMQWVRQAPGKGLEWVSRISPSGGTTYADSVKGRFTISRDNSKNTLYLQMNSLRAEDTAVYYCAYRRTGIPRRDAFDIWGQGTMVTVSS VL: DIQMTQSPSTLSASVGDRVTITCRASQSISSWLAWYQQKPGKAPNLLIYKASTLESGVPSRFSGSGSGTEFTLTISSLQPDDFATYYCQQYNTYWTFGQGTKVEIK | 72.3%
4 | M197-G10 (Fab, V domains shown) VH: EVQLLESGGGLVQPGGSLRLSCAASGFTFSVYAMRWVRQAPGKGLEWVSSIYPSGGKTWYADSVKGRFTISRDNSKNTLYLQMNSLRAEDTAVYYCAYRRTGIPRRDAFDIWGQGTMVTVSS VL: DIQMTQSPSTLSASVGDRVTITCRASQSISSWLAWYQQKPGKAPNLLIYKASTLESGVPSRFSGSGSGTEFTLTISSLQPDDFATYYCQQYNTYWTFGQGTKVEIK | 67.6%
5 | M195-A02 (Fab, V domains shown) VH: EVQLLESGGGLVQPGGSLRLSCAASGFTFSQYMMMWVRQAPGKGLEWVSGISSSGGHTDYADSVKGRFTISRDNSKNTLYLQMNSLRAEDTAVYYCAYRRTGIPRRDAFDIWGQGTMVTVSS VL: DIQMTQSPSTLSASVGDRVTITCRASQSISSWLAWYQQKPGKAPNLLIYKASTLESGVPSRFSGSGSGTEFTLTISSLQPDDFATYYCQQYNTYWTFGQGTKVEIK | 71.3%
6 | M198-F12 (Fab, V domains shown) VH: EVQLLESGGGLVQPGGSLRLSCAASGFTFSIYTMMWVRQAPGKGLEWVSSIWSSGGQTKYADSVKGRFTISRDNSKNTLYLQMNSLRAEDTAVYYCAYRRTGIPRRDAFDIWGQGTMVTVSS VL: DIQMTQSPSTLSASVGDRVTITCRASQSISSWLAWYQQKPGKAPNLLIYKASTLESGVPSRFSGSGSGTEFTLTISSLQPDDFATYYCQQYNTYWTFGQGTKVEIK | 74.6%
7 | M201-H08 (Fab, V domains shown) VH: EVQLLESGGGLVQPGGSLRLSCAASGFTFSHYIMMWVRQAPGKGLEWVSGIYSSGGITVYADSVKGRFTISRDNSKNTLYLQMNSLRAEDTAVYYCAYRRTGVPRRDALDNWGQGTMVTVSS VL: DIQMTQSPSTLSASVGDRVTITCRASQSISSWLAWYQQKPGKAPNLLIYKASTLESGVPSRFSGSGSGTEFTLTISSLQPDDFATYYCQQYNTYWTFGQGTKVEIK | 74.5%
8 | M202-C02 (Fab, V domains shown) VH: EVQLLESGGGLVQPGGSLRLSCAASGFTFSHYIMMWVRQAPGKGLEWVSGIYSSGGITVYADSVKGRFTISRDNSKNTLYLQMNSLRAEDTAVYYCAYRRPGVPRRDAFDIWGQGTMVTVSS VL: DIQMTQSPSTLSASVGDRVTITCRASQSISSWLAWYQQKPGKAPNLLIYKASTLESGVPSRFSGSGSGTEFTLTISSLQPDDFATYYCQQYNTYWTFGQGTKVEIK | 74.3%
